The source of these data is article PMC11548879.

The subject of series [1] is HpARI1 (Heligmosomoides polygyrus bakeri). Nature of the series: EMSA. The settings on record: pH 7.5, 30 min, room temperature. For orientation: A gel shift assay detects complexes by their altered migration in electrophoresis.
Series [2] has as its target IL-33 (mouse) (mouse (endogenous in BALB/c mice and CMT-64 cells)) (UniProt Q8BVZ5).
Sequence of UniProt Q8BVZ5 (Q8BVZ5 whole entry): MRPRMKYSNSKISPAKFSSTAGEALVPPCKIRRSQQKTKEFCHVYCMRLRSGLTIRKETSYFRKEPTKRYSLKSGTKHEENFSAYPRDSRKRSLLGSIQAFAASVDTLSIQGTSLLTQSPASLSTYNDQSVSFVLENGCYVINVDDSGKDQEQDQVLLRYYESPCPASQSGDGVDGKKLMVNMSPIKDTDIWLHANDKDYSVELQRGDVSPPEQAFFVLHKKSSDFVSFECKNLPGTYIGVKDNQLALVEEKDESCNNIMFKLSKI

For the substance “AACTTTGCCATTGTGGAAGG / CCTTCCACAATGCCAAAGTT [IR700 EMSA oligonucleotide probe]”, in series [1], the binding signal is 50 % DNA bound. The substance HpARI2 (natural protein) registered an IC50 of suppression of IL-5 production from bone marrow cells (IL-2, IL-7, freeze-thawed CMT-64 supernatants; IL-33-mediated ILC2 activation) in series [2] of 1.9 ng/mL. In the case of “HpARI2:3 fusion protein (CCP1 domain of HpARI2 fused to the CCP2+3 domains of HpARI3)”, the EC50 of amplification of IL-5 production from bone marrow cells (IL-2, IL-7, freeze-thawed CMT-64 supernatants; IL-33-mediated ILC2 activation) in series [2] came out at 21.5 ng/mL. Turning to HpARI3 (natural protein), the EC50 of amplification of IL-5 production from bone marrow cells (IL-2, IL-7, freeze-thawed CMT-64 supernatants; IL-33-mediated ILC2 activation) in series [2] worked out at 1.2 ng/mL. “HpARI3:2 fusion protein (CCP1 domain of HpARI3 fused to the CCP2+3 domains of HpARI2)”: the IC50 of suppression of IL-5 production from bone marrow cells (IL-2, IL-7, freeze-thawed CMT-64 supernatants; IL-33-mediated ILC2 activation) in series [2] is 1.1 ng/mL.
